The text below walks through data of article PMC9204741 (2022).

One experiment has as its target LonA-His6 (B. subtilis) (UniProt P37945).
Experiment [1] has as its target T1, His6-SmiA (B. subtilis).
T1 chain: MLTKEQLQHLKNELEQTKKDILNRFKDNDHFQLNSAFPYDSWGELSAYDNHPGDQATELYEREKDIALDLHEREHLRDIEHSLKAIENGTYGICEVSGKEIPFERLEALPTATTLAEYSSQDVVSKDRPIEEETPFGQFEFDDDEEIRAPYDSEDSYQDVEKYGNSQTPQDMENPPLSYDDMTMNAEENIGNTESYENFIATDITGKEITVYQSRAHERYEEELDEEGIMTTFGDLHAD
The experiment can be described thus: BLI.

Experiment [2] has as its target T1, His6-SmiA. Nature of the experiment: BLI; His6-SmiA (300 nM) loaded on anti-penta-His (HIS1K) biosensors; GST-SwrA variants 50-400 nM as analyte; 1x PBS, 1x kinetics buffer, 2% dialyzed fetal bovine serum, 0.5 mM TCEP; 1:1 binding model; Octet RED96. On the technique in general: BLI is a label-free optical method that tracks binding on a fibre tip over time.

Chain of LonA-His6 (B. subtilis) (P37945 whole entry): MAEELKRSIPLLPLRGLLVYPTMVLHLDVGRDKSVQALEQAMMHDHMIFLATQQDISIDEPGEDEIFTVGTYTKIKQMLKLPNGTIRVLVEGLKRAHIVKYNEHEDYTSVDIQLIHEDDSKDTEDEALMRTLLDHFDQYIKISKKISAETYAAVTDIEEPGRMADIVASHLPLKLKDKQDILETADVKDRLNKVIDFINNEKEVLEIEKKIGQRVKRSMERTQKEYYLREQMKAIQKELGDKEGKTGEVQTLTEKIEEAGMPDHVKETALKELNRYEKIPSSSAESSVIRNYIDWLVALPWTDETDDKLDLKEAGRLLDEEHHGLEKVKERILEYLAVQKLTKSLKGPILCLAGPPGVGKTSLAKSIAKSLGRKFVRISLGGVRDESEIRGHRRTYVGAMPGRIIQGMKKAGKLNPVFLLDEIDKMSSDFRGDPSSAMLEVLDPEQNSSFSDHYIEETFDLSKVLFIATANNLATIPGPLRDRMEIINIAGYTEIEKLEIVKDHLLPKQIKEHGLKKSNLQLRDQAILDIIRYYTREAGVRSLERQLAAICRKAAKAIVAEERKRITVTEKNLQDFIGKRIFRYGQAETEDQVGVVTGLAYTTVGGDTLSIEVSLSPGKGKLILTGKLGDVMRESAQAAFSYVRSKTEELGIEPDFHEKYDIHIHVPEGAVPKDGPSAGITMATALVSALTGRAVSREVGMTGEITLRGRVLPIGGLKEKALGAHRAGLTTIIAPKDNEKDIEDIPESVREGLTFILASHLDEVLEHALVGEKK

Regarding “GST-mNG-SwrA (from UniProt O32266 1-117) (natural protein)”, the Km of in vitro proteolysis of GST-mNG-SwrA (loss of fluorescence) with 0.25 μM LonA and 0.5 μM SmiA with LonA-His6 (B. subtilis) turned out to be 1.14 µM.

B1: GST-SwrA^Δ101–117 (domain or fragment)
chain: MKRASIVREKKYYELVEQLKDRTQDVTFSATKALSLLMLFSRYLVNYTNVESVNDINEECAKHYFNYLMKNHKRLGINLTDIKRSMHLISGLLDVDVNHY
For B1, the equilibrium dissociation constant (Kd) – broadly, the equilibrium constant for the complex coming apart – in the experiment with His6-SmiA [1] was 0.0432 µM. Further, in the experiment with His6-SmiA [2], the dissociation constant Kd worked out at 0.0432 µM; the dissociation rate constant (koff) (as a rule, a measure of how fast the partners let go of each other) was 0.00418 s⁻¹; the on-rate (kon) (as a rule, the second-order rate constant of association) was 96800 M⁻¹ s⁻¹.

B2: GST-SwrA (natural protein)
chain: MKRASIVREKKYYELVEQLKDRTQDVTFSATKALSLLMLFSRYLVNYTNVESVNDINEECAKHYFNYLMKNHKRLGINLTDIKRSMHLISGLLDVDVNHYLKDFSLSNVTLWMTQER
Turning to B2, the dissociation constant Kd with His6-SmiA [1] was 0.0609 µM. In the experiment with His6-SmiA [2], this molecule registered a koff of 0.0093 s⁻¹ and a kon of 153000 M⁻¹ s⁻¹.
